Reference: patent publication US20170218055A1 (UNIVERSITY OF CHICAGO, published 2017)

T1: peptide H2 (helix 2 of the EKKAA IgBD)
T1 construct: Synthetic linear peptide
T1 peptide: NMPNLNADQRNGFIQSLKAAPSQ

T2: peptide H3 (helix 3 of the EKKAA IgBD)
T2 construct: Synthetic linear peptide
T2 peptide: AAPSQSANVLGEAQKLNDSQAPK

T3: peptide H1 (helix 1 of the EKKAA IgBD)
T3 construct: Synthetic linear peptide, free NH2 and COOH ends as printed
T3 peptide: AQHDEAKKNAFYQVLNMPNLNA

B1: mAb 3D11 (antibody, V domains shown)
VH: QSGPELMKPGASVKISCKASGYSFTSYYMHWVKQSHGKSLEWIGYIDPFNGGTSYNQKFKGKATLTVDKSSSTAYMHLSSLTSEDSAVYYCARYGYDGTFYAMDYWGQGTSVTVSS
VL: RIVLTQSPAITAASLGQKVTITCSASSSVSYMHWYQQKSGTSPKPWIYEISKLASGVPARFSGSGSGTSYSLTISSMEAEDAAIYYCQQWSYPFTFGSGTKLEIK
notes: Mouse IgG2b hybridoma mAb raised against SpAKKAA; also called 3D11-HRP; HRP-3D11
B2: mAb 3A6 (antibody, V domains shown)
VH: QIQLVQSGPELKKPGETVKISCKASGYNFTDYSMHWVKQAPGKGLKWVGWINTETAESTYADDFKGRFAFSLETSASTAYLQINSLKDEDTATFFCAHFDCWGQGTTLTVSS
VL: DVVMTQISLSLPVTLGDQASISCRASQSLVHSNGNTYLNWYLQKPGQSPKLLIHKVSNRFSGVPDRFSGSGSGTDFTLKISRVEAEDLGVYFCSQITYVPWTFGGGTKLEIK
notes: Mouse IgG1 hybridoma mAb
B3: mAb 7E2 (antibody, V domains shown)
VH: QIQLVQSGPELKKPGETVKISCKASGYTFTDYSVHWVKQAPGKGLKWMAWINTATGEPTFADDFKGRFAFSLETSARTAYLQINNLKNEDTATYFCAPQLTGPFAYWGHGTLVTVSA
VL: DIQMTQSPASLSASVGETVTITCRASENIHNYLAWYQQKQGKSPQLLVYNAKTLTDGVPSRFSGSGSGTQFSLKINSLQAGDFGSYYCQHSWSIPYTFGGGTRLQIR
notes: Mouse IgG1 hybridoma mAb
B4: mAb 8E2 (antibody, V domains shown)
VH: KVQLQQSGAGLVKPGASVKLSCKASGYTFTEYSIHWVKQSSGQGLEWIGWFYPGSGYIKYNEKFKDKATLTADKSSSTVYMEFSRLTSEDSAVYFCARHGYGNYVGYAMDYWGQGTSVTVSS
VL: DIQMTQSPASLSASVGETVTITCRASEIIYSYLAWYQQKQGKSPQLLVYFAKTLAEGVPSRFSGSGSGTQFSLKINSLQPEDFGIYYCQHHYGTPYTFGGGTKLEIK
notes: Mouse IgG1 hybridoma mAb
B5: mAb 5A10 (antibody, V domains shown)
VH: EVKLVESGGGLVKPGGSLKLSCAASGFAFSNYDMSWVRQTPEKRLEWVATISSGGTYPYYPDSVKGRFTISRDNAKNTLYLQLSSLRSEDTALYYCARGGFLITTRDYYAMDYWGQGTSVTVSS
VL: TIVLTQSPAIMSASPGEKVTMTCSASSSVSYMYWYQQKPGSSPRLLIYDTSNLASGVPVRFSGSGSGTSYSLTISRMEAEDAATYYCQQWSSYPPTFGGGTKLEIK
notes: Mouse IgG1 hybridoma mAb raised against SpAKKAA; also called 5A10-HRP; HRP-5A10
B6: mAb 2F2 (antibody, V domains shown)
VH: VKLVESGGDLVKPGGSLKLSCAASRFTFSSYVMSWVRQTPEKRLEWVASIGSGGTTYYPDTVKGRFTISRDNARNILYLQMSSLRSDDTAMYYCTRGRGYGFAWYFDVWGAGTTVTVSS
VL: B5 VL
notes: Mouse IgG2b hybridoma mAb
B7: mAb 6D11 (antibody, V domains shown)
VH: QVQLQQSGAELVRPGTSVKVSCKASGNAFTNYLIEWIKQRPGQGLEWIGVINPGSGITNYNEKFKGKATLTADKSSNTAYMQLSSLSSDDSAVYFCSGSANWFAYWGQGTLVTVSA
VL: DIVLTQSPASLAVSLGQRASISCRASESVEYSGASLMQWYQHKPGQPPKLLIYAASNVESGVPVRFSGSGSGTDFSLNIHPVEEDDIAMYFCQQSRKVPSTFGGGTKLEIK
notes: Mouse IgG2a hybridoma mAb

Target: T4, EKKAA immunoglobulin binding domain of SpAKKAA (Staphylococcus aureus, UniProt A0A0H3K686 37-92)
T4 construct: also called SpA-EKKAA; E domain; not shown: N-terminal six histidyl tag (pET15b)
Assay: ELISA, antigen-coated plate

Binder | binding result
B1 | no binding

Target: T5, CKKAA immunoglobulin binding domain of SpAKKAA (Staphylococcus aureus, UniProt A0A0H3K686 214-323)
T5 construct: the construct is said to span residues 234-291 of mature SpA and its limits may differ from the entry; not shown: N-terminal six histidyl tag (pET15b)
Assay: ELISA, antigen-coated plate, mAb titrated

Binder | Ka
B2 | 4e+07 M⁻¹
B3 | 2.8e+08 M⁻¹
B1 | 3.6e+09 M⁻¹
B4 | 1.26e+09 M⁻¹
B5 | 1.01e+10 M⁻¹
B6 | 1.8e+09 M⁻¹
B7 | 4.75e+09 M⁻¹

Target: T6, AKKAA immunoglobulin binding domain of SpAKKAA (Staphylococcus aureus, UniProt A0A0H3K686 156-207)
T6 construct: the construct is said to span residues 118-175 of mature SpA and its limits may differ from the entry; not shown: N-terminal six histidyl tag (pET15b)
Assay: ELISA, antigen-coated plate, mAb titrated

Binder | Ka
B2 | 2.05e+09 M⁻¹
B3 | 3.6e+08 M⁻¹
B1 | 8.7e+08 M⁻¹
B4 | 1.52e+09 M⁻¹
B5 | 8.08e+09 M⁻¹
B6 | 1.37e+09 M⁻¹

Target: T7, DKKAA immunoglobulin binding domain of SpAKKAA (Staphylococcus aureus, UniProt A0A0H3K686 96-149)
T7 construct: the construct is said to span residues 57-117 of mature SpA (61 residues), so its limits differ from the entry; not shown: N-terminal six histidyl tag (pET15b)
Assay: ELISA, antigen-coated plate, mAb titrated

Binder | Ka
B3 | 3e+08 M⁻¹
B4 | 1.51e+09 M⁻¹
B5 | 8.19e+09 M⁻¹
B6 | 1.76e+09 M⁻¹
B7 | 2.42e+09 M⁻¹

Target: T8, SpAKKAA (non-toxigenic staphylococcal protein A variant) (Staphylococcus aureus, UniProt A0A0H3K686 37-327)
T8 construct: The four substitutions are made in each of the five domains (20 in all); Purified from E. coli; also called non-toxigenic protein A
Assay: ELISA, antigen-coated plate, mAb titrated

Binder | Ka
B2 | 1.37e+09 M⁻¹
B3 | 3.1e+08 M⁻¹
B1 | 3.93e+09 M⁻¹
B4 | 1.56e+09 M⁻¹
B5 | 8.47e+09 M⁻¹
B6 | 1.9e+09 M⁻¹

Target: T1, peptide H2 (helix 2 of the EKKAA IgBD)
Assay: ELISA, antigen-coated plate, mAb titrated

Binder | Ka
B7 | 1e+07 M⁻¹

Target: T4, EKKAA immunoglobulin binding domain of …
Assay: ELISA, antigen-coated plate, mAb titrated

Binder | Ka
B2 | 1.38e+09 M⁻¹
B3 | 2.9e+08 M⁻¹
B4 | 1.4e+09 M⁻¹
B5 | 9.4e+09 M⁻¹
B6 | 1.72e+09 M⁻¹

Target: T2, peptide H3 (helix 3 of the EKKAA IgBD)
Assay: ELISA, antigen-coated plate, mAb titrated

Binder | Ka
B2 | 1e+07 M⁻¹

Target: T9, BKKAA immunoglobulin binding domain of SpAKKAA (Staphylococcus aureus, UniProt A0A0H3K686 214-265)
T9 construct: not shown: N-terminal six histidyl tag (pET15b)
Assay: ELISA, antigen-coated plate, mAb titrated

Binder | Ka
B2 | 6.4e+08 M⁻¹
B3 | 3.2e+08 M⁻¹
B1 | 3.92e+09 M⁻¹
B4 | 1.14e+09 M⁻¹
B5 | 7.03e+09 M⁻¹
B6 | 1.13e+09 M⁻¹

Target: T3, peptide H1 (helix 1 of the EKKAA IgBD)
Assay: ELISA, antigen-coated plate, mAb titrated

Binder | Ka
B2 | 6e+07 M⁻¹
B1 | 2e+07 M⁻¹
B7 | 2.7e+08 M⁻¹

Target: T10, peptide H1+2 (helices 1+2 of the EKKAA IgBD)
T10 construct: Synthetic linear peptide; also called helix 1+2 peptide
Assay: ELISA, antigen-coated plate, mAb titrated

Binder | Ka
B2 | 4.4e+08 M⁻¹
B4 | 2.9e+08 M⁻¹
B7 | 5.22e+09 M⁻¹
